This is an account of results in US5863776A, “Method of preparing apoenzyme” (Research Development Foundation, priority 1996, dated 1999).

The test system of assay [1] is MAO B. The assay is described as follows: [^14 C] FAD incorporation into wild-type or mutant MAO B in Rib^- COS-7 cells (immunoprecipitation, fluorography). It counts as binding, human. Particulars: about 59 kDa; equal MAO B concentrations. Here is the method:
(§1) Mutagenesis was carried out by the method of Deng and Nickoloff (22) using a Transformer Site-directed Mutagenesis kit (Clontech). Glu in position 34 was replaced with Asp (E34D), Gln (E34Q), or Ala (E34A), and Val in position 10 was replaced with Ile (V10I) as described by Kwan et al. (18).
(§2) Wild-type or mutant MAO B cDNAs were transiently transfected into COS-7 cells by electroporation (23) as previously described (18). Briefly, Rib^+ - or Rib^- COS-7 cells were harvested during late log phase growth and resuspended to a concentration of 3.1×10^6 cells/ml in either riboflavin-containing or riboflavin-free medium, respectively. Wild-type or mutant MAO B cDNAs ([…]) were added to 0.8 ml of cell suspension. […] Electroporation was carried out in a Bio-Rad Gene Pulser with a setting of 250 V and 500 μF. Cells were resuspended in 15 ml of riboflavin-containing or riboflavin-free medium and incubated at 37° C. with 5% CO2. Transfected COS-7 cells were harvested at 48 hours and homogenized in a lysis solution containing 20 mM Tris-HCl, 1 mM EDTA, 0.5 mM PMSF, pH 8.0. The homogenate was diluted with an equal volume of the same buffer supplemented with 300 mM NaCl to obtain a 150 mM final NaCl concentration. Triton X-100 (Pierce) was added to the lysate to give a final concentration of 0.25%, and the samples were allowed to stir for 50 min. at 4° C. to extract MAO B from the outer mitochondrial membrane. After Triton extraction, the lysate was centrifuged at 1300×g for 5 min. at 4° C. to remove insoluble cell debris.
(§3) Transfected Rib^+ - or Rib^- COS-7 cells were homogenized, and extracted with 0.25% Triton X-100 for 50 minutes at 4° C. The cell lysates were centrifuged at 1300×g for 5 minutes, and an aliqout of each supernatant was analyzed for MAO B concentration by ELISA. All supernatants were then adjusted to equal MAO B concentration and incubated with polyclonal goat anti-MAO B antibody (10 μg) overnight at 4° C. Protein-G Sepharose beads (Pierce) were added (50 μl) and incubation was continued for 3 hours. The protein-G Sepharose/goat antibody/MAO B immmunocomplex was collected by centrifugation at 10,000×g for 20 seconds and washed 6 times with 150 μl of 20 mM Tris buffer, pH 8.0. The immunocomplex was then dissolved in SDS-PAGE sample buffer and analyzed by Western blot or fluorography.
(§4) The immunoprecipitated proteins (obtained as described above) were subjected to electrophoresis in a 10% SDS-polyacrylamide gel and examined by Western blotting as previously described (18). The immunoprecipitated proteins (obtained as described above) were subjected to electrophoresis in a 10% SDS-polyacrylamide gel. The SDS-PAGE gel was fixed by soaking in 7% acetic acid, 10% methanol, 83% H2 O for 1 hour, and then processed for fluorography as described by Bonner and Laskey (27). The dried gel was exposed to Kodak X-OMAT AR film at -80° C. for 2 weeks.
(§5) The expressed wild-type and variant MAO Bs were adjusted to equal concentrations using ELISA before immunoprecipitation, and then analyzed by fluorography. The amount of incorporation of [^14 C] […] FAD was incorporated into the enzyme.

The target in assay [2] is T1, MAO B (Homo sapiens, UniProt P27338, E34D).
T1 construct: expressed in transfected cells; host or cells: Rib+ COS-7, transient
T1 sequence (P27338 2-520 E34D): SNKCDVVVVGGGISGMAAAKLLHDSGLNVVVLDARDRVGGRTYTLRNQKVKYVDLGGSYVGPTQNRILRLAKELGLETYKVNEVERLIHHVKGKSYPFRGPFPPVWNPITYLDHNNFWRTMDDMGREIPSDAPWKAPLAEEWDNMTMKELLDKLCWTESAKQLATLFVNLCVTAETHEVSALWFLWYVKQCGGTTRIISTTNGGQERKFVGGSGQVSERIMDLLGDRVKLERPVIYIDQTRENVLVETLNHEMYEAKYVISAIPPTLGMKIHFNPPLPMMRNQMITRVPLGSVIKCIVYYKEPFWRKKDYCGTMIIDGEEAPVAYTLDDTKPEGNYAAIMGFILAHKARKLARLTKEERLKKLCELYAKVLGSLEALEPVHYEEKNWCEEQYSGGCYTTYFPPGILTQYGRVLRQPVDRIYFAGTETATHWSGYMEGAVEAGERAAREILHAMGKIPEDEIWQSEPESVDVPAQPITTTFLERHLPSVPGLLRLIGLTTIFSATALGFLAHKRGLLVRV
The description is as above. It counts as binding. Conditions: densitometer. As to the method:
as §1, §2, §3, §4, §5

Assay [3] has as its target T1, MAO B. Particulars: cited from earlier work.

B1: E34D: MAO B with Glu in position 34 replaced with Asp (protein, UniProt P27338 2-520, looked up, variant E34D)
Amine oxidase …: T1 sequence (P27338 2-520 E34D)
Regarding B1, the “[^14 C] FAD incorporation (band on fluorogram)” value with MAO B [1] is reported as “faint band”. Also, the “[^14 C] FAD incorporation, percent of wild-type” value with MAO B [2] is reported as “about 10%”. In addition, the reduction in activity with MAO B [3] (Rib^+ COS-7 cells) is listed as 93%. Moreover, in the assay with MAO B [3], the “activity, % of wild-type activity” value is recorded as 7%.
